Columns and labels:
[1] = target: T1, pSu9-DHFR (mouse DHFR fused to Neurospora crassa Su9 presequence) (Mus musculus, UniProt P00375 SEQ:1-259); test: EMSA; shift increases with protein; legend names pSu9-DHFR, text says DHFR; 10 mM Tris pH 7.5, 50 mM NaCl, 1 mM MgCl2, 25 C; details: label: 32P-UTP; tRNA
T1 chain: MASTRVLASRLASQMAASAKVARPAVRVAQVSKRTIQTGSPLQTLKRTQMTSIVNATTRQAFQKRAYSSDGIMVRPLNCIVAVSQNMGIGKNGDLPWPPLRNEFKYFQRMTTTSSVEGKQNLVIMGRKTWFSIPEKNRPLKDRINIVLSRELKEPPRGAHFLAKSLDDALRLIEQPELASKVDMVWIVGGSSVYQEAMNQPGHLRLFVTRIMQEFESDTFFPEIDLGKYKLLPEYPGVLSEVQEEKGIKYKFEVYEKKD
Procedure: The RNA-protein interaction was studied by means of the shift gel technique. The procedure used is the procedure No. TB110 of Promega, entitled <<gel shift assay system >>. The reaction is conducted in a 9 μL reaction volume comprising: […] of protein, 2 μL of gel shift buffer 5× (20% (v/v) glycerol, 5 mM MgCl₂, 2.5 mM EDTA, 2.5 mM DTT, 250 mM NACl, 50 mM Tris-HCL pH 7.5). The medium is incubated for 10 minutes at room temperature. One μL of radiolabelled tRNA (about 10 fmol corresponding to 20,000 cpm) is then added and the whole is then incubated under mild stirring at 25° C. After migration, the medium is added with one μL of load buffer (250 mM Tris-HCl pH 7.5, 40% (v/v) glycerol). The gel is prepared from a solution of 4% acrylamide/N,N′-methylene bisacrylamide (19/1) in TBE 0.5× buffer (45 mM Tris 45, 1.25 mM EDTA pH 8.3, 45 mM boric acid). The polymerization of the gel is catalyzed by adding 0.04% (w/v) APS and 0.04% (v/v) TEMED. Before charging the samples, the gel is set to a voltage of 350 V for 10 mins. Migration is then carried out for 20 mins at 350 V in the TBE 0.5× buffer. The gel is dried and then exposed against a Phosphorimager plate (Fuji) or subject to autoradiography.
The nucleic acid substrate selected in this case corresponds to the cytosolic tRNAAla of Arabidopsis thaliana (SEQ ID NO: 4). […]

pSu9-GFP = pSu9-GFP (UniProt P42212 SEQ:1-307); test: stated unable to interact with tRNAAla; no effect on import; details: label: 32P-UTP; tRNA
[2] = target: DHFR (mouse, recombinant) (Mus musculus, UniProt P00375 SEQ:4-190); test: Southwestern blot; 10 mM Tris pH 7.5, 5 mM Mg acetate, 2 mM DTT, 4 C; details: tags: His tag; label: 5'-32P
Procedure: The DNA substrate selected in this case corresponds to an oligonucleotide (single strand DNA) corresponding to the sequence of cytosolic tRNAAla of A. thaliana (SEQ ID NO: 4). This chemically synthesized oligonucleotide (Sigma Aldrich) and labeled at 5′ was incubated with a membrane onto which the recombinant proteins DHFR and GFP were transferred. No interaction between GFP and the oligonucleotide was observed while a signal was obtained, reflecting an interaction between DHFR and the oligonucleotide.

B1: cytosolic tRNAAla transcript (A. thaliana) (ssRNA)
RNA: GGGGAUGUAGCUCAUAUGGUAGAGCGCUCGCUUUGCAUGCGAGAGGCACAGGGUUCGAUUCCCUGCAUCUCCACCA
[1]
  binding result: binds
pSu9-GFP
  binding result: no binding

B2: tRNAAla-sequence DNA oligonucleotide (ssDNA)
DNA: GGGGATGTAGCTCATATGGTAGAGCGCTCGCTTTGCATGCGAGAGGCACAGGGTTCGATTCCCTGCATCTCCACCA
[2]
  binding result: binds

From patent publication US20120110693, “TARGETING NUCLEIC ACIDS IN MITOCHONDRIA” (published 2012)
